Assay [1] concerns the target T1, recombinant soluble 1968 H3 HA (A/Aichi/2/1968) (Influenza A virus A/Aichi/2/1968 (H3N2), UniProt P03437 17-530). Kind of assay: ELISA, unconcentrated supernate. In general terms: ELISA stands for enzyme-linked immunosorbent assay.
Assay [2] concerns the target HA of A/New Caledonia/20/1999 (H1N1) virus (Influenza A virus (H1N1)). Kind of assay: cell-based or functional assay.
In assay [3] the target is HA of A/South Carolina/1/1918 (H1N1), wild type, on VLP (Influenza A virus A/South …, UniProt Q9WFX3 18-566). Kind of assay: cell-based or functional assay.
Assay [4] addresses HA of A/New Jersey/11/1976 (H1N1) virus (Influenza A virus (H1N1)). Kind of assay: cell-based or functional assay.
Assay [5] addresses HA of A/USSR/92/1977 (H1N1) virus (Influenza A virus (H1N1)). Kind of assay: cell-based or functional assay.
The target of assay [6] is HA of A/L3/1947 (H1N1) virus (Influenza A virus (H1N1)). Kind of assay: cell-based or functional assay.
Assay [7] deals with T2, HA of A/California/04/2009 (H1N1) virus (Influenza A virus (H1N1)). Kind of assay: cell-based or functional assay.
Assay [8] addresses HA of A/Weiss/1943 (H1N1) virus (Influenza A virus (H1N1)). Kind of assay: cell-based or functional assay.
Assay [9] addresses HA of A/Brisbane/59/2007 (H1N1) virus (Influenza A virus (H1N1)). Kind of assay: cell-based or functional assay.
For assay [10], the target named is HA of A/swine/Iowa/15/1930 (H1N1) virus (Influenza A virus (H1N1)). Kind of assay: cell-based or functional assay.
The target in assay [11] is T3, recombinant soluble trimeric 1918 H1 HA (A/South Carolina/1/1918, wild type) (Influenza A virus A/South …, UniProt Q9WFX3 18-529). Kind of assay: ELISA, supernate.
Assay [12] has as its target T1, recombinant soluble 1968 H3 HA …. Kind of assay: ELISA, supernate.
Assay [13] concerns the target T3, recombinant soluble trimeric 1918 H1 HA …. Kind of assay: ELISA, supernate. This is another data set of the same source.
Assay [14] addresses T1, recombinant soluble 1968 H3 HA …. Kind of assay: ELISA, supernate. This is another data set of the same source.
In assay [15] the target is T3, recombinant soluble trimeric 1918 H1 HA …. Kind of assay: biolayer interferometry (Octet Red), His-tagged HA on anti-Penta-HIS tips. For orientation: BLI is a label-free optical method that tracks binding on a fibre tip over time.
The target of assay [16] is HA of A/Alabama/1/1981 (H3N2) virus (Influenza A virus (H3N2)). Kind of assay: cell-based or functional assay.
The target of assay [17] is HA of A/Vietnam/1203/2004 (H5N1) virus (Influenza A virus (H5N1)). Kind of assay: cell-based or functional assay.
In assay [18] the target is T2, HA of A/California/04/2009 (H1N1) virus. Kind of assay: cell-based or functional assay. This is another data set of the same source.
In assay [19] the target is HA of A/Hong Kong/1/1968 (H3N2) virus (Influenza A virus (H3N2), UniProt Q91MA7 17-566). Kind of assay: cell-based or functional assay.

Like-named read-outs stand apart in the source and are kept apart here. Some results are limits rather than exact numbers.

8 molecules from patent US20130289246A1 (VANDERBILT UNIVERSITY, published 2013) can be followed below.

One may read the Kd as the constant that tells how readily two partners part at equilibrium. What is called koff is the rate constant with which the complex falls apart. What is called kon is a measure of how fast the partners come together.

B1: mAb 2K11 (antibody, V domains shown)
VH: EVQLVESGGGLVQPGGSLRLSCVASTFSLINYWMTWVRQAPGKGLEWVANIKQDGFEKYYVDSVKGRFTISRDNAKNSLYLQMNSLRVEDTAVYYCARQGSYADTYFYHYGMDVWGQGTTVTVS
VL: QSALTQPPSVSGAPGQRVTISCTGSSSNIGAGYDAYWYQQLPGTAPKLLIYGNSNRLSGVPDRFSASKSGTSASLAITGLQAEDEADYYCQSYDSSLSIFGGGTKLTVLR
With B1, the binding result in assay [1] is reported as “no binding”. For the same molecule, the HAI activity is over 20 µg/mL in [2]; 0.16 µg/mL in [3]; 1.3 µg/mL in assay [4]; 0.32 µg/mL in assay [5]; over 20 µg/mL in assay [6]; 0.63 µg/mL in [7]. For the same molecule, the values for the HAI activity in assay [8], in assay [9] and in [10] were over 20 µg/mL, over 20 µg/mL and 0.16 µg/mL, respectively. Moreover, the OD in assay [11] stood at 0.311 OD; in [12] it was 0.08 OD.

B2: mAb 18G6 (antibody, V domains shown)
VH: QVQLKESGPGLVKPSETLSLTCTVSGGSISSSNYNWGWIRQPPGKGLEWIGSVYYSGSTYFNPSLKSRVTISVDTSKNQFSLKLTSVTAADTAVYYCARLIAFYYDTNGYTWGQGTLVTVS
VL: NSIMTQSPFTLSASVGDKVTITCRASQSISPWLAWYQQKPGKAPKLLIYKASSLETGVPSRFSGSESGTEFTLTISGLQPDDFATYYCQQYSSFARTFGQGTKVEIKR
As for B2, the OD in assay [13] turned out to be 0.075 OD; in assay [14] it was 0.073 OD.

B3: 5J8 Fab (Fab, V domains shown)
VH: EVQLVESGPGLVKPSDILSLTCAVSGYSISSNYYWGWIRQPPGKGLEWIGSIYHSGSTYYKPSLESRLGISVDTSKNQFSLKLSFVSAADTAVYYCARHVRSGYPDTAYYFDKWGQGTLVTVS
VL: SYVLTQPPSVSVAPGETARISCGGNNIGTKVLHWYQQTPGQAPVLVVYDDSDRPSGIPERFSGSNSGNTATLTISRVEVGDEADYYCQVWDISTDQAVFGGGTKLTVLG
On to B3, for which, in assay [15], the Kd came to 190 nM, the koff was 0.036 s⁻¹ and the kon came out at 200000 M⁻¹ s⁻¹.

B4: mAb 25J3 (antibody, V domains shown)
VH: QVQLQESGPGLVRPSETLSLTCNVSGDSINDYYWSWIRQPPGKGLEWIGYIYYSGSTNYNPSLNSRVTISVEMSKNQFSLILNSVTAADTAVYYCARVDYDSGGSFDPWGQGTLVTVS
VL: QSVLTQPPSVSGAPGQRVTISCTGSSSNIGAGYDVHWYQQLPGTAPKLLIYGNSNRPSGVPDRFSGSKSGTSASLAITGLQAEDEADFYCQSYDSRLSGYVFGTGTKVTVLG
As to B4, the values for the OD in assay [13] and in [14] were 0.07 OD and 0.623 OD, respectively.

B5: mAb 4A10 (antibody, V domains shown)
VH: EVQLVESGGGLVQPGGSLRLSCAASGFSFSSYWMTWVRQAPGKGLEWVANIKQYGSEKYYVDSVKGRFTISRDNAKNSLYLQMNSLRDDDTAVYYCARMGSYLDTYYYHYGMDVWGQGTTVTVS
VL: QSVLTQPPSLSGAPGQRVTISCTGSSSNIGADYDVYWYQHLPGTAPKLLMYGDGYRPSGVPDRFSGSKSGTSASLAITGLQAEDEADYYCQSYDSSLSRRVVFGGGTKLTVLG
On to B5, for which the binding result in [1] is “no binding”. Besides, the HAI activity in [2] was over 20 µg/mL; in assay [3], 0.08 µg/mL; in assay [4], 2.5 µg/mL; in [5], 0.32 µg/mL; in [6] it was over 20 µg/mL; in [7], 0.16 µg/mL. The HAI activity in assay [8] is over 20 µg/mL; in assay [9], over 20 µg/mL; in [10] it was 0.63 µg/mL. For the same molecule, the OD came out at 0.725 OD in assay [11] and 0.072 OD in [12].

B6: mAb 11J19 (antibody, V domains shown)
VH: EVQLQESGPGLVKPSETLSLSCTVSGGSITRSSYYWGWIRQPPGKGLEWIGNIYYSGTTYYNPSLKSRVTISVDTSKNQFSLKLSSVTAADTAVYYCARLYGSGLDYWGQGTLVTVS
VL: DIQLTQSPSFLSASVGDRVTITCRASQGSSRYVAWYQQKPGKAPKLLILAASTLHTGVPSRFSGSGSGTEFTLTISSLQPEDFATYSCQQLNGFLLTFGGGTKVEIKR
As to B6, the results for the OD in assay [13] and in assay [14] were 0.079 OD and 0.895 OD, respectively. Also, the HAI activity in assay [16] is over 20 µg/mL; in [17] it was over 20 µg/mL; in assay [18] it was over 20 µg/mL; in assay [19], 2.5 µg/mL.

B7: mAb 7A13 (antibody, V domains shown)
VH: QVQLQESAPGLVKPSGTLSLTCAVSGASLSSSDWWTWVRQPPGKGLEWIGEIHHGGSTNSNPSLQSRVTISIDKSKKQFSLKLTSVTVADTAVYYCARAPGADAGPYSENIHHWGQGTLVTVS
VL: QLVLTQSPSASASLGASVKLTCTLSSRHSDYAIGWHQQQPGKGPRYLMKLNPDGSHTKGDGIPDRFSGSSSGAERYLTISNLLSEDEADYYCQTWGTGIQVFGGGTRLTVIS
Turning to B7, the OD came out at 0.076 OD in assay [13] and 0.265 OD in assay [14]. Moreover, the HAI activity in assay [16] is over 20 µg/mL; in [17], over 20 µg/mL; in assay [18], over 20 µg/mL; in assay [19], 0.7 µg/mL.

B8: mAb 2O10 (antibody, V domains shown)
VH: EVQLVESGGGLVQPGGSLRLSCAASGFTFNSYWMTWVRQAPGKGLEWVANINQDGSEKFFVDSVKGRFTISRDNAKTSLYLQMNSLRVEDTAVYYCAREGAPYDTYYYYYAMDVWGQGTTVTVS
VL: QSVLTQPPSVSGAPGQRVTISCTGTSSNIGAGYGVHWYQQLPGAAPKLLVYGNSNRPSGVPDRFSGSKSGTSASLAITGLQAEDEADYYCQSYDISLSGSNVFGTGTKVTVLG
Consider B8, for which the binding result in [1] is “no binding”. The HAI activity in assay [2] was over 20 µg/mL; in assay [3] it was 0.04 µg/mL; in assay [4] it was 2.5 µg/mL; in assay [5] it was 2.5 µg/mL; in assay [6], over 20 µg/mL; in [7] it was 0.32 µg/mL. Further, the HAI activity was over 20 µg/mL in assay [8], over 20 µg/mL in assay [9] and 0.08 µg/mL in assay [10]. The values for the OD in assay [11] and in [12] were 0.308 OD and 0.077 OD, respectively.
